Where no end group is shown, it is not given here. The star is where a group is joined. Carboxymethyl = O=C(O)C*
How the values were obtained:
[1] = QELS particle size and zeta potential of glycopeptide DNA condensates, Example 3; format: physicochemical; details: 0.5 nmol of peptide or glycopeptide per μg of DNA; 50 μg/mL DNA in HBM
Experimental: Glycopeptide DNA condensates were formed at a plasmid DNA concentration of 50 μg/mL in HBM (5 mM Hepes 0.27 M mannitol pH 7.4). DNA condensates were formed by combining 750 μL of plasmid DNA (100 μg/mL) with 750 μL of triantennary-CWK18 (50 nmol/mL), Man9-CWK18, or AlkCWK18 while vortexing. The particle size of glycopeptide and peptide DNA condensates were analyzed at a DNA concentration of 50 μg/mL in HBM by quasielastic light scattering (QELS) (Cohen et al., 1990). The particle surface charge was determined at 50 μg/mL in HBM by zeta potential analysis using a Brookhaven ZetaPlus™ (Brookhaven Instruments).

[2] = Particle size and zeta potential of peptide DNA condensates after freeze-drying and rehydration, Example 2; format: physicochemical
Experimental: The concentration of AlkCWK18 and PEG-CWK18 were determined by UV absorbance (Trp, ε280 nm=5,600 M^−1 cm^−1). Peptide DNA condensates were prepared in 5 mM Hepes pH 5 at a peptide/DNA stoichiometry of 0.3 nmol of peptide/μg of DNA. The condensates were formed by adding 450 μL of 100 μg/mL NT-βGal drop wise to 450 μL of 30 nmol/mL AlKCWK18 or PEG-CWK18 while vortexing. Each sample was prepared in triplicate, and after a 30 min equilibration, 20-100 μL of 50 wt/vol % solutions of either glucose, mannitol, galactose, dextran or sucrose were added followed by normalization to 1 mL to give a final sugar concentration of 1-5 wt/vol % and DNA concentration of 50 μg/mL.
The mean particle size of 50 μg/mL AlkCWK18 DNA condensates were determined by quasielastic light scattering (QELS) on a Brookhaven ZetaPlus™. Samples (1 mL) were frozen rapidly in dry ice ethanol in a 1.5 mL microcentrifuge tube and then lyophilized on a Labconco™ freeze dryer for 24 h operated at a constant vacuum of 55×10^−6 mBar while maintained at room temperature (22° C.). The maximal vacuum was achieved within 2 min after applying the sample.
At the highest sucrose concentration of 5 wt/vol %, samples remained frozen throughout freeze-drying but dried to form a glassy solid after 24 h. […] Freeze-dried samples prepared in triplicate were reconstituted in 1 mL of deionized water, allowed to equilibrate for 30 min and then analyzed by QELS as described above. Large peptide DNA condensates were measured by light microscopy with magnification of 100X. The particle size of PEG-peptide DNA condensates were also measured by transmission electron microscopy (TEM) according to a published procedure (Wadhwa et al., 1997).
The relationship between pH and rehydrated peptide DNA condensate particle size was examined in 5 mM Hepes at a pH range of 3-7. The particle size of 50 μg/mL DNA condensates in 5 wt/vol % sucrose was determined by QELS before and after freeze-drying as described above.
The rehydrated particle size of AlkCWK18 or PEG-CWK18 DNA condensates were also examined at a concentration of 0.05-5 mg/mL in 5 mM Hepes pH 5 with (AlkCWK18 DNA) or without (PEG-CWK18 DNA) the addition of 5 wt/vol % sucrose. DNA condensates were freeze-dried and reconstituted to the original concentration. QELS particle size analysis before and after freeze-drying required dilution of an aliquot of the sample to concentration of 50 μg/mL. Freeze-dried 5 mg/mL PEG-CWK18 DNA condensates were also reconstituted in 0.9 wt/vol % sodium chloride and analyzed for particle size.

HepG2 cells [3] = assay: Cell binding of 125I-DNA condensates, Example 1; format: cell-based; details: 5 h transfection, 10 μg 125I-DNA condensates
Experimental: Iodinated plasmid DNA was prepared with specific activity of 300 nCi per μg of DNA as described previously (Teribesi et al., 1998). Prior to forming DNA condensates, the specific activity of the ^125I DNA was adjusted to 4.5 nCi per μg of DNA by combining with unlabeled plasmid. DNA condensates were prepared using AlkCWK18, PEG-SS-CWK18 or PEG-VS-CWK18 as described above. Peptide ^125I-DNA condensates (10 μg) were used to transfer HepG2 cells for 5 h according to the procedure described above. The radioactive media was removed, cells were washed with phosphate buffered saline, harvested with lysis buffer, and the cell-associated radioactivity was quantified by gamma counting.

plasmid DNA = assay: Fluorescent dye (thiazole orange) displacement assay of peptide binding to DNA, Example 1; details: corresponding to a charge ratio of 1.8:1
Experimental: Peptide DNA condensates were formed by adding 75 μg of DNA (pCMVL in 750 μl of 5 mM Hepes pH 7.4) to varying amounts of peptide (7.5 to 90 nmol in 750 μl of Hepes) while vortexing, followed by equilibration at RT for 1 h. Peptide binding to DNA was monitored by a fluorescent dye displacement assay (Wadhwa et al. 1997). A 1 μg aliquot of the peptide DNA condensate was diluted to 1 ml in Hepes containing 0.1 μM thiazole orange. The fluorescence of the intercalated dye was measured on an LS50B fluorimeter (Perkin Elmer, UK) in a microcuvette by exciting at 500 nm while monitoring emission at 530 nm.

COS 7 cells [4] = assay: Luciferase reporter gene expression in COS 7 cells, Example 5; format: cell-based
HepG2 cells [5] = assay: Nuclear targeted β-galactosidase (X-gal) count of transfected HepG2 cells; format: cell-based; details: HepG2, 48 h, NTβGal plasmid
Experimental: (§1) The number of cells transfected in vitro was examined using a plasmid encoding nuclear targeted β-galactosidase followed by X-gal (5-bromo-4-chloro-3-indolyl-β-galactopyranoside) staining. HepG2 and COS 7 cells were transfected for 5 h as described above with either AlkCWK18 DNA, peptide II DNA condensates, or plasmid DNA and then grown in fresh media for an additional 43 h. After removing media, cells were fixed for 5 min in phosphate-buffered saline (PBS, pH 7.3) containing 1.25 vol/vol % glutaraldehyde and then stained by incubation with 0.05 wt/v % X-gal, 1 mM magnesium chloride, 10 mM potassium ferricyanide, and 10 mM potassium ferrocyanide in PBS. After 4 h at 37° C., the X-gal solution was removed and the nuclear stained blue cells were counted with a light microscope under ten power magnification by averaging the number of transfectants from nine fields. Values were analyzed for significance by one-way analysis of variance.

COS 7 cells [6] = assay: Nuclear targeted β-galactosidase (X-gal) count of transfected COS 7 cells; format: cell-based; details: COS 7, 48 h, NTβGal plasmid
Experimental: as §1

peptide:DNA stoichiometry at the asymptote of the dye displacement titration curve (relative DNA binding affinity) (plasmid DNA) | Substance | mean particle size of DNA condensates [1] | minimum sucrose concentration to bulk DNA condensates during freeze-drying ([2]; 50 μg/ml DNA condensates) | diameter of fibrous flocculates after freeze-drying and rehydration without lyoprotectant ([2]; 50 μg/ml DNA condensates, light microscopy) | upper limit of DNA condensate concentration below which rehydrated particle size was maintained ([2]; 5 wt/vol % sucrose, 5 mM Hepes pH 5) | mean particle diameter during rehydration ([2]; 5 wt/vol % sucrose, DNA concentrations up to 200 μg/mL) | zeta potential ([2]; pH 3) | cell associated 125I-DNA, percent of dose (HepG2 cells [3]) | increase in luciferase gene expression relative to AlkCWK18 (COS 7 cells [4]) | more cells transduced (nuclear stained) vs. AlkCWK18 (HepG2 cells [5]) | more cells positively stained vs. AlkCWK18 (COS 7 cells [6])
0.3 nmol per μg of DNA | Alk-S-Cys-Trp-Lys18 (C(Carboxymethyl)WKKKKKKKKKKKKKKKKKK) [AlkCWK18] | 81 nm | 1 wt/vol % | approximately 100 μm | 200 µg/mL | less than 50 nm | +30 mV | Approximately 14% |  |  | 
 | Cys-Trp-Lys17-Cys (CWKKKKKKKKKKKKKKKKKC) [Peptide II] |  |  |  |  |  |  |  | 10 fold | approximately 9 fold | 4 fold

Source: patent US6770740B1, “Crosslinked DNA condesate compositions and gene delivery methods” (The Regents of the University of Michigan, priority 1999, dated 2004)
